Laboratory results published in publication PMC12561925.

Assays:
[1] = target: MHV68 gL-gH fusion protein (gL-Linker-gH-Linker-His6) (murine gammaherpesvirus 68 (MHV68))
[2] = target: MHV68 gL-gH fusion protein (gL-Linker-gH-Linker-His6) (murine gammaherpesvirus 68 (MHV68)); assay: ELISA; MHV68 gL-gH fusion protein coated at 2.5 μg/ml in PBS on Maxisorp plates; soluble dimeric Eph-Fc proteins 2 h at room temperature in 1% BSA in PBS; detected with HRP-conjugated ProteinG; OD 450 nm; four-parameter dose-response fit

recombinant soluble murine EphA4 Fc fusion protein (from UniProt Q03137-1 20-547)
reduction of MHV68 ORF59-GFP infection of the murine endothelial cell line SVEC4-10 after pre-incubation of the virus with 100 nM homodimerized mEphA4-Fc [1]: 25%
EC50 [2]: 3.6 nM

B1: recombinant soluble murine EphB3 Fc fusion protein (Fc fusion)
chain: LEETLMDTKWVTSELAWTSHPESGWEEVSGYDEAMNPIRTYQVCNVRESSQNNWLRTGFIWRREVQRVYVELKFTVRDCNSIPNIPGSCKETFNLFYYEADSDVASASSPFWMENPYVKVDTIAPDESFSRLDAGRVNTKVRSFGPLSKAGFYLAFQDQGACMSLISVRAFYKKCASTTAGFALFPETLTGAEPTSLVIAPGTCIANAVEVSVPLKLYCNGDGEWMVPVGACTCATGHEPAAKESQCRACPPGSYKAKQGEGPCLPCPPNSRTTSPAASICTCHNNFYRADSDSADSACTTVPSPPRGVISNVNETSLILEWSEPRDLGGRDDLLYNVICKKCRGSSGAGGPATCSRCDDNVEFVPRQLGLTERRVHISHLLAHTRYTFEVQAVNGVSGKSPLPPRYAAVNITTNQAAPSEVPTLHLHSSSGSSLTLSWAPPERPNGVILDYEMKYFEKSKGIASTVTSQKNSVQLDGLQPDARYVVQVRARTVAGYGQYSHPAEFETTSERGSGAQQLQEQLPL
inhibition of MHV68 ORF59-GFP infection of human fibroblasts (HFF) and endothelial cells (TIME) after pre-incubation of the virus with 100 nM homodimerized mEphB3-Fc [1]: 30%
EC50 [2]: 2.3 nM
